Measured values reported in the RNAGym collection of RNA variant scans (doi:10.7554/elife.90254).

B1: LINE1-full (parent)
chain: UACGUAGGUGGUUUUCCCCUGAUAGUGCUAAGGGGGCCUGGAAGUUUGGACUGGGCAGAGCUCAACACAGCGUGGCAAAGUGGCUGUGGCUAGACUGCCUCUCUGGAUUCCUCGUCACUCAGCAGGGCAUCUCUGAGAGAAAUGCC

Variants of: B1
Experiment: self-cleavage, relative activity (ratio to wild type); higher = more cleavage; in vitro, sequencing; the parent is a self-cleaving ribozyme

Variant	self-cleavage
C17U U112A	0.9
C17U U112C	1.49
C17U U132C	0.95
C17U U143G	1.43
C18A A57G	1.29
C18A A69C	0.13
C18A A77U	0.97
C18A A94G	0.22
C18A A129G	1.42
C18A C123U	1.31
C18A G34A	1.01
C18A G36A	1.12
C18A G88U	0.12
C18A G89A	0.05
C18A U46C	1.65
C18A U62C	0.11
C18A U73C	1.23
C18A U109A	1.71
C18A U115G	0.99
C18A U119C	1.49
C18U A22U	0.9
C18U A24G	1.01
C18U A67G	0.44
C18U A69G	0.29

Variant	self-cleavage
C18U A117G	1.72
C18U A124U	1.27
C18U A129U	0.56
C18U A142G	1.27
C18U C113U	0.75
C18U G139U	1.11
C18U U39C	0.82
C18U U52A	1.54
C18U U62C	0.08
C18U U73A	1.78
C18U U73C	1.53
C18U U81C	0.84
C18U U85C	0.12
C18U U87A	0.08
C18U U104C	0.23
C18U U109A	0.9
C18U U115C	1.49
C18U U143C	1.11
C19A A57G	1.11
C19A A69G	0.42
C19A A107G	1
C19A A136U	0.59
C19A A142U	1.36
C19A U39A	2.04

Variant	self-cleavage
C19A U46C	1.22
C19A U52C	0.51
C19A U62A	0.05
C19A U85A	0.14
C19A U91C	0.46
C19A U100A	0.51
C19A U100C	0.9
C19A U102C	1.76
C19A U109A	1.58
C19A U112C	1.55
C19A U112G	0.85
C19A U134C	0.67
C19G A31G	0.73
C19G A43G	0.31
C19G A78G	1.24
C19G A117U	1.69
C19G C56U	0.22
C19G U62A	0.03
C19G U85C	0.24
C19U A22U	1.11
C19U A24U	1
C19U A31U	1.35
C19U A42C	0.69
C19U A43G	0.62

Variant	self-cleavage
C19U A50G	0.77
C19U A57G	0.88
C19U A57U	0.13
C19U A59G	0.03
C19U A64G	0.25
C19U A67G	0
C19U A77G	1.68
C19U A78G	1.24
C19U A79G	0.97
C19U A79U	1.47
C19U A94G	0.29
C19U A94U	0.14
C19U A117G	1.49
C19U A121C	1.02
C19U A124G	0.88
C19U A136U	1.41
C19U A138G	1.01
C19U A138U	1.24
C19U A140G	0.92
C19U A140U	0.82
C19U A142G	1.06
C19U C76U	1.64
C19U C116U	0.9
C19U C120U	1.25

Variant	self-cleavage
C19U C123U	1.58
C19U C133A	0.59
C19U G34A	0.75
C19U G36C	0.82
C19U G40A	1
C19U G48A	0.72
C19U G58U	0.09
C19U G72A	1.19
C19U G72C	1.31
C19U G75A	1.11
C19U G93A	0.07
C19U G105U	1.55
C19U U20C	0.93
C19U U23A	1.1
C19U U23C	0.79
C19U U26A	0.95
C19U U26C	1.32
C19U U29C	1.37
C19U U39A	1.07
C19U U39C	0.65
C19U U47A	0.69
C19U U52A	1.28
C19U U52G	0.5
C19U U62C	0.06

Variant	self-cleavage
C19U U81C	1
C19U U87A	0.09
C19U U87C	0.06
C19U U96C	0.18
C19U U102C	0.73
C19U U108C	1.26
C19U U112A	1.06
C19U U112C	1.13
C19U U115C	1.79
C19U U119C	1.38
C19U U132C	0
C19U U134A	0.81
C19U U134C	1.09
U20A A30G	0.9
U20A A42G	1.06
U20A A43C	0.84
U20A A43G	1.12
U20A A50G	1.2
U20A A59G	0.15
U20A A64U	0.36
U20A A69G	0.45
U20A A78G	1.39
U20A A79U	1.59
U20A A94G	0.18

Variant	self-cleavage
U20A A107G	1.37
U20A A124G	0.76
U20A A124U	0.91
U20A A136G	0.93
U20A A138G	1.27
U20A A140G	1.16
U20A A140U	1.7
U20A A141G	1.43
U20A C38U	0.87
U20A C51A	0.82
U20A C51U	0.77
U20A C63U	0.45
U20A C66U	0.02
U20A C68U	0.35
U20A C71U	1.22
U20A C90U	0.02
U20A C111A	1.19
U20A C120U	1.32
U20A C131U	1.36
U20A G25A	0.37
U20A G32C	1.33
U20A G33U	0.66
U20A G35C	1.12
